From the DeepSol protein solubility set come the findings set out here.

This data set in a line: soluble on expression in E. coli; label from the status in PepcDB or PDB records.
On to “SDDKAFTKELDQWVEQLNECKQLNENQVRTLCEKAKEILTKESNVQEVRCPVTVCGDVHGQFHDLMELFRIGGKSPDTNYLFMGDYVDRGYYSVETVTLLVALKVRYPERITILRGNHESRQITQVYGFYDECLRKYGNANVWKYFTDLFDYLPLTALVDGQIFCLHGGLSPSIDTLDHISPRGAGYTFGQDISETFNHANGLTLVSRAHQLVMEGYNWCHDRNVVTIFSAPNYCYRCGNQAAIMELDDTLKYSFLQFDPAPRRGEPHVTRRTPDYFL”, for which the “soluble on expression in E. coli” value is “soluble”.
For “SDPATCPIIPGCETTIEISKGRTGLGLSIVGGSDTLLGAIIIHEVYEEGAACKDGRLWAGDQILEVNGIDLRKATHDEAINVLRQTPQRVRLTLYRDEAPYKEEEVCDTLTIELQKKPGKGLGLSIVGKRNDTGVFVSDIVKGGIADADGRLMQGDQILMVNGEDVRNATQEAVAALLKCSLGTVTLEVGRIKAGPFHSERRPSQSSQVSEGSLSSFTFPLSGSSTSESLESSSKKNALASEIQGLRTVEMKKGPTDSLGISIAGGVGSPLGDVPIFIAMMHPTGVAAQTQKLRVGDRIVTICGTSTEGMTHTQAVNLLKNASGSIEMQVVAGGDVSVVTGHQQEPASSSLSFTGLTSSSIFQDDLGPPQCKSITLERGPDGLGFSIVGGYGSPHGDLPIYVKTVFAKGAASEDGRLKRGDQIIAVNGQSLEGVTHEEAVAILKRTKGTVTLMVLS” the value was “soluble”.
The value for “SDRLIDKMAGEERQKIELWAQATKIVASDDEAVLAKDLVLQIIQSNNSIPVILCDPKDSIISYNNIDIPAGKPALPYLQKKLRYFKEGYPPIRIEIEARRPQFLYYSDSQTLRR” was “not soluble”; that for “SDSAFANLDAAGFLQIWQHFDADDNGYIEGKELDDFFRHMLKKLQPKDKITDERVQQIKKSFMSAYDATFDGRLQIEELANMILPQEENFLLIFRREAPLDNSVEFMKIWRKYDADSSGYISAAELKNFLKDLFLQHKKKIPPNKLDEYTDAMMKIFDKNKDGRLDLNDLARILALQENFLLQFKMDASSQVERKRDFEKIFAHYDVSRTGALEGPEVDGFVKDMMELVRPSISGGDLDKFRECLLTHCDMNKDGKIQKSELALCLGLKHKP” was “soluble”.
The value for “SEEYDTNFYKKLFDAMFVNEDELKEMGKDPKEYMENLLKEAEEKSLKEKMELYKKYNVIEIDSLEDEYQSTAEGYGNLEDVKKFIQKYDINGVYDGYTLLYTYSGYRGETNIIEFLIENNADIYKKSINGKTPLYSAVDDYFYDAAEVILKHYKDNDDINDEFLLAVNNENEPMLRILLKKKFLFFGNKFKMNLDKGLEIALDKGNKDIAAELVLSGAKTDNFLYYFK” was “not soluble”; that for “SEFQSTVVATVDCQKQVRSWRLLRSFIQLLIPTCNCTLVQELEQDNTNLRGKKLYNDIKSRTSSFRSSSSLSSSTVTGTIFGYRKGKINFCIQTPRKSTNLDLLLELAVPTTVLAREMREGALRIVLERNNEKQDDDSFLSKPFWNMYCNGKRVGYARKRSPSQDDMTALTALSKVVVGAGVVTGKELGRFDDELMYLRASFRRVNGSKESESFHLIDPAGNIGQELSIFIVPSSV” was “soluble”; that for “SEKEKGNDDGIPDQENSLDFSEHFNQLELLETHGHLIPTGTQSLWVGNSDEDEEQDDKNEEWYRLQEKKMEKDPSRLLLWAAEKNRLTTVRRLLSEKATHVNTRDEDEYTPLHRAAYSGHLDIVQELIAQGADVHAVTVDGWTPLHSACKWNNTRVASFLLQHDADINAQTKGLLTPLHLAAGNRDSKDTLELLLMNRYVKPGLKNNLEETAFDIARRTSIYHYLFEIVEGCTNSSPQS” was “soluble”.
With “SEKMKLLYVYDPLCGWCYGFGPVVEKIEKNYKGTVDVEIISGGMVMGNRIAPIGNMSEYILDAIPRLQRMTGIEFGQPYITLLKEGSYVTSSEKPSIALCVYKSFTAERAVEYGHAIQTSFYKEGKDLNQDVLYADLATSYGIDRAAFLKRMKDSVYFNQAHEEFKRAAALGVTGFPTLLLKQENGYTALTEGYATYESIEKQLQKHVKAAGTK”, the “soluble on expression in E. coli” value is on record as “not soluble”.
For “SELLCHEVDPVRRAVRDRNLLRDDRVLQNLLTIEERYLPQCSYFKCVQKDIQPYMRRMVATWMLEVCEEQKCEEEVFPLAMNYLDRFLAGVPTPKSHLQLLGAVCMFLASKLKETSPLTAEKLCIYTDNSIKPQELLEWELVVLGKLKWNLAAVTPHDFIEHILRKLPQQREKLSLIRKHAQTFIALCATDFKFAMYPPSMIATGSVGAAICGLQQDEEVSSLTCDALTELLAKITNTDVDCLKACQEQIEAVLLNSLQQYRQDQRDGSKSEDELDQASTPTDVRDIDL” the value was “soluble”; for “SENLYFQGSANAVCQRCQARFSPAERIVNSNGELYHEHCFVCAQCFRPFPEGLFYEFEGRKYCEHDFQMLFA”, “soluble”.
The value for “SENVGKKYFMSSVRRMPLNRAKALCSELQGTVATPRNAEENRAIQNVAKDVAFLGITDQRTENVFEDLTGNRVRYTNWNEGEPNNVGSGENCVVLLTNGKWNDVPCSDSFLVVCEFSD” was “soluble”.
The value for “SEVDINGDSRSTLTTLPLPVAEGSSPGKAEAEKPRCSSTPCSPMRRTVSGYQILHMDSNYLVGFTTGEELLKLAQKCTGGEDSKGEAMPALRAKQLDTGLARSSRLYKTRSRYYQPYEIPAVNGRRRRRMPSSGDKCTKPLPYEPYKALHGPLPLCLLKGKRAHSKSLDYLNLDKMNIKEPADTEVLQYQLQHLTLRGDRVFARNNT” was “not soluble”; that for “SFHGIPATPGIGAPGNKPELYEEVKLYKNAREREKYDNMAELFAVVKTMQALEKAYIKDCVSPSEYTAACSRLLVQYKAAFRQVQGSEISSIDEFCRKFRLDCPLAMERIKEDRPITIKDDKGNLNRCIADVVSLFITVMDKLRLEIRAMDEIQPDLRELMETMHRMSHLPPDFEGRQTVSQWLQTLSGMSASDELDDSQVRQMLFDLESAYNAFNRFLHA” was “soluble”; that for “SGAAGPSSASVKEFQNLVDQHITPFVALSKKLAPEVGNQVEQLVKAIDAEKALINTASQSKKPSQETLLELIKPLNNFAAEVGKIRDSNRSSKFFNNLSAISESIGFLSWVVVEPTPGPHVAEMRGSAEFYTNRILKEFKGVNQDQVDWVSNYVNFLKDLEKYIKQYHTTGLTWNPKGGDAKSATP” was “soluble”.
For the sequence “SGGCTALVAVSLQGKLYMANAGDSRAILVRRDEIRPLSFEFTPETERQRIQQLAFVYPELLAGEFTRLEFPRRLKGDDLGQKVLFRDHHMSGWSYKRVEKSDLKYPLIHGQGRQARLLGTLAVSRGLGDHQLRVLDTNIQLKPFLLSVPQVTVLDVDQLELQEDDVVVMATDGLWDVLSNEQVAWLVRSFLPGNQEDPHRFSKLAQMLIHSTQGKEDSLTEEGQVSYDDVSVFVIPLHSQGQESSDH”, the “soluble on expression in E. coli” value is listed as “soluble”.
The value for “SGLVPGRHMMITMDDIIREGNPTLREVAKEVSLPLSEEDISLGKEMLEFLKNSQDPIKAEELHLRGGVGLAAPQLDISKRIIAVHVPSPDPEADGPSLSTVMYNPKILSHSVQDACLGEGEGCLSVDREVPGYVVRHAKITVSYYDMNGEKHKIRLKNYESIVVQHEIDHINGVMFYDHINDQNPFALKEGVLVIE” was “soluble”.
For “SGMEELEQGLLMQPWAWLQLAENSLLAKVFITKQGYALLVSDLQQVWHEQVDTSVVSQRAKELNKRLTAPPAAFLCHLDNLLRPLLKDAAHPSEATFSCDCVADALILRVRSELSGLPFYWNFHCMLASPSLVSQHLIRPLMGMSLALQCQVRELATLLHMKDLEIQDYQESGATLIRDRLKTEPFEENSFLEQFMIEKLPEACSIGDGKPFVMNLQDLYMAVTTQEVQVGQKHQ” the value was “soluble”; for “SGQKASQQVAPKDSQEVLAMCEVVSAAISHAAQKLKEYLGFEYPLSRLCLAASSLTEVFLVHFVTFCQERGADEWLTTTKMTKHQAWLFGADWIWTFWGPDKEIRLQVAVQTLRMASLPLTDPKSCESRGEESWKKGRFDKLQEFCNLVGEDCLGLFIIFGVPGEPKAIRGVVLESVRNGMMESQLPGRKAVEQFVLETKDCVSIKELLGNCLSKRDGLSDMGRVYIRIL”, “soluble”; for “SGQTALAGGSSSTPTPQALYPDLSCPEGLEELLSAPPPDLGAQRRHGWNPKDCSENIEVKEGGLYFERRPVAQSTDGARGKRGYSRGLHAWEISWPLEQRGTHAVVGVATALAPLQTDHYAALLGSNSESWGWDIGRGKLYHQSKGPGAPQYPAGTQGEQLEVPERLLVVLDMEEGTLGYAIGGTYLGPAFRGLKGRTLYPAVSAVWGQCQVRIRYLGERRAEPHSLLHLSRLCVRHNLGDTRLGQVSALPLPPAMKRYLLYQ”, “not soluble”.
For “SIHYTWQNALLDVSERLGVANNSVTLLQQKQANYVRAFADSYDFRTRINQGTPQDELQKWVTEQKKRYSLDFLSFQRVNSMENKFRFMDLTKRESFFDVLNREELEQLDPELAKRAEVPILADGGMEARGLVSRTVIPVYSQANDLIGFLDGGLLLNNSTVLVDQIRDLIYLSDNDRLRPVGTLTVFLDDLRVSTNVPLDSDHRLGRAIGTRVSAEVYNQVLSKGQQWVDRAYVYDAWYITAYQPIKDQYDNVIGMLYTGYLMWPFVKAYMTNIAE” the value was “not soluble”.
As to “SIIPSLEELDSLKYSDLQNLAKSLGLRANLRATKLLKALKGYIKHEARKGNENQDESQTSASSCDETEIQISNQEEAERQPLGHVTKTRRRCKTVRVDPDSQQNHSEIKISNPTEFQNHEKQESQDLRATAKVPSPPDEHQEAENAVSSGNRDSKVPSEGKKSLYTDESSKPGKNKRTAITTPNFKKLHEAHFKEMESIDQYIERKKKHFEEHNSMNELKQPINKGGVRTPVPPRGRLSVASTPISQRRSQGRSCGPASQSTLGLKGSLKRSAISAAKTGVRFSAATKDNEHKRSLTKTPARKSAHVTVSGGTPKGEAVLGTHKLKTITGNSAAVITPFKLTTEATQTPVSNKKPVFDLKASLSRPLNYEPHKGKLKPWGQSKENNYLNQHVNRINFYKKTYKQPHLQTKEEQRKKREQERKEKKAKVLGMRRGLILAED”, the “soluble on expression in E. coli” value is “not soluble”.
The value for “SIKDVHRCFVIACIPGKKPYTLALSDFISATAACFKSGIPLKTLKESLENMKETYFRPLKVEEFELLRTWLTLVYKTLKEVLFPLTENKRGICDTDDSIYDEFVKSIVTAIREGYSMEKIRLEQVVTNTKTQPRTEFESALLSQSTRIVVQTVQIAKEFSSEQ” was “soluble”.
As to “SILATPILIPENQRPPFPRSVGKVIRSEGTEGAKFRLSGKGVDQDPKGIFRINEISGDVSVTRPLDREAIANYQLEVEVTDLSGKIIDGPVRLDISVIDQNDNRPMFKEGPYVGHVMEGSPTGTTVMRMTAFDADDPSTDNALLRYNILKQTPTKPSPNMFYIDPEKGDIVTVVSPVLLDRETMETPKYELVIEAKDMGGHDVGLTGTATATILIDD”, the “soluble on expression in E. coli” value was “soluble”.
The value for “SIRLPAHLRLQPIYWSRDDVAQWLKWAENEFSLSPIDSNTFEMNGKALLLLTKEDFRYRSPHSGDVLYELLQHILKQRDLEAEAAAAEAAAKA” was “soluble”.
“SKGWGWLALLLGVLLGTAWARRSQDLHCGACRALVDELEWEIARVDPKKTIQMGSFRINPDGSQSVVEVPYARSEAHLTELLEEVCDRMKEYGEQIDPSTHRKNYVRVVSRNGESSELDLQGIRIDSDISGTLKFACESIVEEYEDELIEFFSREADNVKDKLCSKRTDLCDHALHRSHDEL”: the “soluble on expression in E. coli” value is on record as “soluble”.
The value for “SKKVIGKKRAHAEDDELDPMDPSSYSDAPRGGWVVGLKGVQPRAADTTASGPLFQQRPYPSPGAVLRRNAEVASSQKKKPNSQFTEITKRGDGSDGLGDAD” was “soluble”.
